From publication PMC4666351, “A novel transcriptional regulator of L-arabinose utilization in human gut bacteria”

T1: BtAraR V92D (Bacteroides thetaiotaomicron (VPI-548 …, UniProt Q8AAV8 1-225, V92D))
T1 sequence: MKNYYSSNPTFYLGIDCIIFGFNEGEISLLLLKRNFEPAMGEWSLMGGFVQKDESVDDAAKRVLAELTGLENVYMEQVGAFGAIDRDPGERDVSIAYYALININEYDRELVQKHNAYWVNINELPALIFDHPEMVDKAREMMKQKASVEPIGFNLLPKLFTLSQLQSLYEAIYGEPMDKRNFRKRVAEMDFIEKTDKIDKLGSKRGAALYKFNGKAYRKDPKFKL

T2: BtAraR R34N (Bacteroides thetaiotaomicron (VPI-548 …, UniProt Q8AAV8 1-225, R34N))
T2 sequence: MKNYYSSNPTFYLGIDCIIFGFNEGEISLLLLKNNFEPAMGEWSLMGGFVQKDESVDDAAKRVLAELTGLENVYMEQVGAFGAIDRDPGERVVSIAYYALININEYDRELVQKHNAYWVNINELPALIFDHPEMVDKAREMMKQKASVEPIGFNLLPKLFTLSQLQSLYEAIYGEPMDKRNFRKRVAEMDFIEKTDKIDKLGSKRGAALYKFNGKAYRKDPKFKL

T3: BtAraR F49Q (Bacteroides thetaiotaomicron (VPI-548 …, UniProt Q8AAV8 1-225, F49Q))
T3 sequence: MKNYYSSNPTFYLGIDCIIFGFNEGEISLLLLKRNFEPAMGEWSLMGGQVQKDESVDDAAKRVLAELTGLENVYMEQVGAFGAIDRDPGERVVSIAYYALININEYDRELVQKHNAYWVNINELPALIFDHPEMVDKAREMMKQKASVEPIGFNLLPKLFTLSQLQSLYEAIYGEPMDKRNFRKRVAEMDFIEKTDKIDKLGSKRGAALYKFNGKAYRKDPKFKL


Columns and labels:
[1] = target: BtAraR (BT0354), NrtR family transcription factor of Bacteroides thetaiotaomicron (B. thetaiotaomicron); test: crystal structure; four crystal forms of SeMet BtAraR: apo-1 (R3), apo-2 (I2_(1)3), complex with a 27-bp DNA duplex (P23), complex with L-arabinose (P2_(1)); data at 100 K
BtAraR V92D = target: T1, BtAraR V92D; test: EMSA; 1 uM protein; EMSA: 20 mM Tris-HCl pH 8.0, 150 mM KCl, 5 mM MgCl2, 1 mM DTT, 0.05% NP-40, 2.5% glycerol, 37 C, 30 min; DNA 0.2 nM (0.16 nM in Fig S4), protein 0.25-1 uM; conditions: protein: recombinant; label: 5'-biotin on one strand; blunt
BtAraR R34N = target: T2, BtAraR R34N; test: EMSA; 0.5 mM L-arabinose, 1 uM protein; EMSA: 20 mM Tris-HCl pH 8.0, 150 mM KCl, 5 mM MgCl2, 1 mM DTT, 0.05% NP-40, 2.5% glycerol, 37 C, 30 min; DNA 0.2 nM (0.16 nM in Fig S4), protein 0.25-1 uM; conditions: protein: recombinant; chain copies: 2; label: 5'-biotin on one strand; blunt
BtAraR F49Q = target: T3, BtAraR F49Q; test: as above; conditions: protein: recombinant; chain copies: 2; label: 5'-biotin on one strand; blunt

Row | stoichiometry N [1] | Molecule | binding result (BtAraR V92D) | binding result (BtAraR R34N) | binding result (BtAraR F49Q)
1 | 2 | BtAraR (BT0354), NrtR family transcription factor of Bacteroides thetaiotaomicron (natural protein) | – | – | –
2 | – | BT0356 (araM) promoter 65-bp (dsDNA) DNA 1: CCCCCATATAAGAGTGTATTTGATACACCAAACAAAAGTGTTACTTTTACACCCAAAATACCCCC DNA 2: GGGGGTATTTTGGGTGTAAAAGTAACACTTTTGTTTGGTGTATCAAATACACTCTTATATGGGGG | no binding | binds | binds
